{"source": "patent US20250361295A1", "about": "(ANTENGENE BIOLOGICS, published 2025)", "binders": {"B1": {"name": "ch48-E11-H7-B5 (antibody, V domains shown)", "VH": "EVQLVESGGGLVKPGGSLKLSCAASGFTFSSYAMSWVRQTPEKRLEWVASITIGDDTYYPDSVKGRFTISRDHAKNILYLQVSSLRSEDTAMYSCARGVNSYGSSYRYFDVWGAGTTVTVSS", "VL": "DIVMTQSHKFMSTSVGDRVSITCKASQDVSTAVAWYQQKPGQSPKLLIYWASTRHTGVPDRFTGSGSGTDYTLTISSVQAEDLALYYCQQHYSIPFTFGAGTKLEK"}, "B2": {"name": "ch43-D12-F3-G11 (antibody, V domains shown)", "VH": "EVQVVESGPGLVAPSQSLSITCTVSGFSLTSYGVSWVRQPPGKGLEWLGVIWADGSTNYHSALLSRLSISKDNSKSQVFLKLNSLQTDDTATYYCAKGHWDGFAYWGQGTLVAVSA", "VL": "DIVLTQSPAIMSTSPGEKVTLTCSASSSITSSYLYWYQQKPGSSPKLWIYSTSNLASGVPARFSGSGSGTSYYLTISSMEAEDAASYFCHQWSSYPPTFGGGTKLELK"}, "B3": {"name": "43-D12-F3-G11 (antibody, V domains shown)", "VH": "B2 VH", "VL": "B2 VL", "notes": "mouse monoclonal hybridoma antibody"}, "B4": {"name": "ch8-B3-F6-H8 (antibody, V domains shown)", "VH": "EVKVIESGGGLVQPGGSLKLSCAASGFDFSRYWMSWVRQAPGKGLEWIGEINPDSSAINYTPSLKDKFIISRDNAKNTLYLQMSKVRSEDTALYYCATSMTMDYWGQGTSVTVSS", "VL": "DIVMTQSPSSMYASLGERVTITCKASQDIKSYLSWYQQKPWKSPKTLIYYATSLADGVPSRFSGSGSGQDYSLTISSLESDDTATYYCLQHGESPYTFGGGTKLEK"}, "B5": {"name": "8-B3-F6-H8 (antibody, V domains shown)", "VH": "B4 VH", "VL": "B4 VL", "notes": "as for B3"}, "B6": {"name": "27-F11-E10-G10 (antibody, V domains shown)", "VH": "EVQLVESGGGLVQPGGSRKLSCAASGFTFSSFGMHWVRQAPEKGLEWVAYISSGSSTIYYADTVKGRFSISRDNPKNTLFLQMTSLRSEDTAMFYCARSTGTGAMDYWGQGTSVTVSS", "VL": "DIQMTQTTSSLSASLGDRVTISCRASQDISNYLNWYQQKPDGTVKLLIYYTSRLHSGVPSRFSGSGSGTDYSLTISNLEQEDIATYFCQQGNTLPWTFGGGTKLELK", "notes": "as for B3"}}, "key": {"human LILRB4 [1]": {"biological_target": "T1, human LILRB4 (human, UniProt Q8NHJ6 22-448)", "T1 construct": "whole, on cells; also called hLILRB4", "assay": "FACS, 293F-hLILRB4 cells", "procedure": "(§1) The protocol for FACS analysis is described as follows: [0438] (a) Cells were harvested by centrifugation at 300 g for 3 mins. […] (b) The cells were washed for 2 times with FACS buffer by centrifuging at 300 g for 3 mins and the supernatant was discarded. [0440] (c) Cell were resuspended and seeded into assay plate (2×10⁵ cells/well) in 50 μl FACS buffer. […] Cells were incubated with antibodies at 4° C. for 1 hour. […] (d) Step (b) was repeated and the cells were resuspended with 100 μl diluted 2nd antibody, incubated at 4° C. for 1 hour in the dark. [0442] (e) Step (b) was repeated and the cells were resuspended with 100 μl FACS buffer. The cells were kept in dark for FACS analysis."}, "human LILRB3 [2]": {"biological_target": "T2, human LILRB3 (human, UniProt O75022 24-631)", "T2 construct": "whole, on cells; also called hLILRB3", "T2 sequence (O75022 24-631)": "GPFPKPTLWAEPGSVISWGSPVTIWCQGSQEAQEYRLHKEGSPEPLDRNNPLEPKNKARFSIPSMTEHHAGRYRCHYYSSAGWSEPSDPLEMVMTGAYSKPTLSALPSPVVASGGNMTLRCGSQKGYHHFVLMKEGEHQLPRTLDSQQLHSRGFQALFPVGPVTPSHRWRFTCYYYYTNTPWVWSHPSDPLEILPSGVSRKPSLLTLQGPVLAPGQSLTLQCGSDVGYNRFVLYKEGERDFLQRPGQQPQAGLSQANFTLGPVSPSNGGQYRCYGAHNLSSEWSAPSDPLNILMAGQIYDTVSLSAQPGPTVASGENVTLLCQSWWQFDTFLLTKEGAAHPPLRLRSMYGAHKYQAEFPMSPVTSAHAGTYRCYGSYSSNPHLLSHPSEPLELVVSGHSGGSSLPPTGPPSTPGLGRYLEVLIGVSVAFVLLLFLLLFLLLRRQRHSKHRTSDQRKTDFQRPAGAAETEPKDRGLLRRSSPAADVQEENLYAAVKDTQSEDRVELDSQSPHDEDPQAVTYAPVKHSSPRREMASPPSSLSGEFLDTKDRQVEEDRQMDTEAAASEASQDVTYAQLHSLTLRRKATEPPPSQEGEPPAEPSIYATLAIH", "assay": "FACS, 293F-hLILRB3 cells", "procedure": "as §1"}, "human LILRB4 [3]": {"biological_target": "T1, human LILRB4", "assay": "cell-based or functional assay"}, "human LILRB4 [4]": {"biological_target": "T1, human LILRB4", "assay": "cell-based or functional assay", "remark": "listed apart in the source"}, "human LILRB4 [5]": {"biological_target": "T1, human LILRB4", "assay": "cell-based or functional assay", "remark": "listed apart in the source"}, "human LILRA2": {"biological_target": "T3, human LILRA2 (human, UniProt Q8N149 24-483)", "T3 construct": "whole, on cells; also called hLILRA2", "T3 sequence (Q8N149 24-483)": "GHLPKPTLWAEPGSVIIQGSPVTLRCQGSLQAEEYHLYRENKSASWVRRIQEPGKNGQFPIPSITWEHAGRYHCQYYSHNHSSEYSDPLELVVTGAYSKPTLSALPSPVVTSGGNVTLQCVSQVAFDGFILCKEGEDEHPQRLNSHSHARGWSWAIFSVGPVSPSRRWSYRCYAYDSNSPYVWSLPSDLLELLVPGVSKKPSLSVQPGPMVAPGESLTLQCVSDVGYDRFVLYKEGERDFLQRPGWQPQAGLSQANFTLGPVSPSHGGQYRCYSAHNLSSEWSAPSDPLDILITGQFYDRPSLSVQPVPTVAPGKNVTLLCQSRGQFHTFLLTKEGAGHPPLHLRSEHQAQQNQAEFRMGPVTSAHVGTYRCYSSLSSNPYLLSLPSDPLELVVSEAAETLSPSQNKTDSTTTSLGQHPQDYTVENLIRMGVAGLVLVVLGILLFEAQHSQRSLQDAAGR", "assay": "FACS, 293F-hLILRA2 cells"}, "human LILRB2": {"biological_target": "T4, human LILRB2 (human, UniProt Q8N423 22-597)", "T4 construct": "whole, on cells; also called hLILRB2", "T4 sequence (Q8N423 22-597)": "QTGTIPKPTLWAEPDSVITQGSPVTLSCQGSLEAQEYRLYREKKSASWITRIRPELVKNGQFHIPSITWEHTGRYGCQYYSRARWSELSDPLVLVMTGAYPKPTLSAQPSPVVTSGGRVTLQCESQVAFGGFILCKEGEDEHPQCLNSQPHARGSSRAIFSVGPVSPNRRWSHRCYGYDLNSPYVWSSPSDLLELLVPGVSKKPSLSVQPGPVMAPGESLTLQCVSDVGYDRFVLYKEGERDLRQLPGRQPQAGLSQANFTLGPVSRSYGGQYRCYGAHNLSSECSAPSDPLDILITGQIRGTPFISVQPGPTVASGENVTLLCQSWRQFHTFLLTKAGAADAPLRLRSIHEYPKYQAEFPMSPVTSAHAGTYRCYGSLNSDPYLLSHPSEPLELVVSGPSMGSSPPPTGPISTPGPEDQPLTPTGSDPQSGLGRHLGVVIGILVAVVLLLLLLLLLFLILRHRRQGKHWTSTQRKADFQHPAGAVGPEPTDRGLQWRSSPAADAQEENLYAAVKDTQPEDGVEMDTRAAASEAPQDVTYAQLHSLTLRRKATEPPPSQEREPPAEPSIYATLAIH", "assay": "FACS, 293F-hLILRB2 cells"}, "human LILRA3": {"biological_target": "T5, human LILRA3 (human, UniProt Q8N6C8 24-439)", "T5 construct": "whole, on cells; also called hLILRA3", "T5 sequence (Q8N6C8 24-439)": "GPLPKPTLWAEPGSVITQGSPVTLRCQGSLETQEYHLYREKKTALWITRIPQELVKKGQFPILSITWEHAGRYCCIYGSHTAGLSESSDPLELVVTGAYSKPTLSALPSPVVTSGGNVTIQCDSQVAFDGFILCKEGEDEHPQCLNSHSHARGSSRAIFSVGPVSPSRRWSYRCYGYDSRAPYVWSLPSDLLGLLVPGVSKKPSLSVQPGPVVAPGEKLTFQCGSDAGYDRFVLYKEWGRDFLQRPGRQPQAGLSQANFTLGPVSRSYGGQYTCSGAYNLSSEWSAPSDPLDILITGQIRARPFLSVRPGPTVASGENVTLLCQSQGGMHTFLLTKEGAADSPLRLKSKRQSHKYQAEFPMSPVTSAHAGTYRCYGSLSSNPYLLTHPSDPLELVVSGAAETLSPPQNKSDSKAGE", "assay": "FACS, 293F-hLILRA3 cells"}, "human LILRA4": {"biological_target": "T6, human LILRA4 (human, UniProt P59901 24-499)", "T6 construct": "whole, on cells; also called hLILRA4", "T6 sequence (P59901 24-499)": "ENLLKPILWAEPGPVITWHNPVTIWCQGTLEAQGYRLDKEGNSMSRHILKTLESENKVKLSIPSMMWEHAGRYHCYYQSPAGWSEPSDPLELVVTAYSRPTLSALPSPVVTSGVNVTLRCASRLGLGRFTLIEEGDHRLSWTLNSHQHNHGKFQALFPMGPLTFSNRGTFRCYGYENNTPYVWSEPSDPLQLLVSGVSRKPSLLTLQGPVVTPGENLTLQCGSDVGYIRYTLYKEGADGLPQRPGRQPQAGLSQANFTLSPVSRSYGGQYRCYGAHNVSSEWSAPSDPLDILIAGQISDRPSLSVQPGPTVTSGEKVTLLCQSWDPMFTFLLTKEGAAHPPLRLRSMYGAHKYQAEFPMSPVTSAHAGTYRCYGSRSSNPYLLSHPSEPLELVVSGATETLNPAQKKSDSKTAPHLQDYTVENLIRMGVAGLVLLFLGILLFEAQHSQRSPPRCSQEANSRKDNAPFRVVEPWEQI", "assay": "FACS, 293F-hLILRA4 cells"}, "human LILRB4 [6]": {"biological_target": "T1, human LILRB4", "assay": "FACS, 293F-hLILRB4 cells", "procedure": "The subcloning plates were screened by protein or cell-based ELISA, and the subclones with good binding ability were expanded to 24-wells for confirmation tests. The specificity and cross-reactivity of these subclones were confirmed with FACS analysis. […] Fluorescent dye-conjugated secondary antibody was used to detect the binding of the primary antibody with the cells. Median fluorescence intensity (MFI) was measured by FACS analysis. […]", "remark": "listed apart in the source"}, "human LILRA5": {"biological_target": "T7, human LILRA5 (human, UniProt A6NI73 42-299)", "T7 construct": "whole, on cells; also called hLILRA5", "T7 sequence (A6NI73 42-299)": "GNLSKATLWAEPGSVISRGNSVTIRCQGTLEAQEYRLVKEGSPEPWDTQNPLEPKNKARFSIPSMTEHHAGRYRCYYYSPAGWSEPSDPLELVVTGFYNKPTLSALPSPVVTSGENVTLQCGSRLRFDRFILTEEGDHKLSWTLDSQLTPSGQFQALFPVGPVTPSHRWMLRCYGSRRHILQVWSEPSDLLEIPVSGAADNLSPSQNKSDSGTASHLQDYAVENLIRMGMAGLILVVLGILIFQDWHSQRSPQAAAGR", "assay": "FACS, 293F-hLILRA5 cells"}, "human LILRB5": {"biological_target": "T8, human LILRB5 (human, UniProt O75023 24-590)", "T8 construct": "whole, on cells; also called hLILRB5", "T8 sequence (O75023 24-590)": "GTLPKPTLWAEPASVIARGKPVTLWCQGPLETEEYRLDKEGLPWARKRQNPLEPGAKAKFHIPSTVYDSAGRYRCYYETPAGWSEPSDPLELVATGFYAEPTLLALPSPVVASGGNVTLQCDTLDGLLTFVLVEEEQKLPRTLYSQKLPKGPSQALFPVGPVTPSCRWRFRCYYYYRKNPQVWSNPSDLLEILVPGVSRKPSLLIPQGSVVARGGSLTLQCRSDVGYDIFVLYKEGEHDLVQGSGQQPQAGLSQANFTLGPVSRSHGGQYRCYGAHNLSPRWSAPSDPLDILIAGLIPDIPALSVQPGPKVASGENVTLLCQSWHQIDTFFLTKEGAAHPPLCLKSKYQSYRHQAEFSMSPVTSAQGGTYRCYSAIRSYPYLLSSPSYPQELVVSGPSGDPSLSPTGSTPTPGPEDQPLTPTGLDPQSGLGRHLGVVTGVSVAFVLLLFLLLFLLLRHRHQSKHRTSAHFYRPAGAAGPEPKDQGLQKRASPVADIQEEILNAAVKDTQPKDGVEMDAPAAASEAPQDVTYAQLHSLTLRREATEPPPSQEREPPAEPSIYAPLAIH", "assay": "FACS, 293F-hLILRB5 cells"}, "human LILRA1": {"biological_target": "T9, human LILRA1 (human, UniProt O75019 17-489)", "T9 construct": "whole, on cells; also called hLILRA1", "T9 sequence (O75019 17-489)": "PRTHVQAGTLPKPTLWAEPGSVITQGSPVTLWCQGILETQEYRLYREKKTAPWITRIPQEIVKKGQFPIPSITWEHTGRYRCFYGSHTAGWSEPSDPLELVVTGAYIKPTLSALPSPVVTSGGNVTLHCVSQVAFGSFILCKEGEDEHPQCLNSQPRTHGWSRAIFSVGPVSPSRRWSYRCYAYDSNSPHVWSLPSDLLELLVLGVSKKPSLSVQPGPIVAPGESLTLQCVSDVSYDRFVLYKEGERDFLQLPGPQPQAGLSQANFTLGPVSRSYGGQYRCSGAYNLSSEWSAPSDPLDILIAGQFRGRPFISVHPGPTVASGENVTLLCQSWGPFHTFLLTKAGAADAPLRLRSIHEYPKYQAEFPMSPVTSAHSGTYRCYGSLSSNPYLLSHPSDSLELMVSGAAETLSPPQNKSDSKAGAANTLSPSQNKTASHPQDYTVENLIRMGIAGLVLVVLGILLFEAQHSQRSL", "assay": "FACS, 293F-hLILRA1 cells"}, "human LILRB1": {"biological_target": "T10, human LILRB1 (human, UniProt Q8NHL6 24-650)", "T10 construct": "whole, on cells; also called hLILRB1", "T10 sequence (Q8NHL6 24-650)": "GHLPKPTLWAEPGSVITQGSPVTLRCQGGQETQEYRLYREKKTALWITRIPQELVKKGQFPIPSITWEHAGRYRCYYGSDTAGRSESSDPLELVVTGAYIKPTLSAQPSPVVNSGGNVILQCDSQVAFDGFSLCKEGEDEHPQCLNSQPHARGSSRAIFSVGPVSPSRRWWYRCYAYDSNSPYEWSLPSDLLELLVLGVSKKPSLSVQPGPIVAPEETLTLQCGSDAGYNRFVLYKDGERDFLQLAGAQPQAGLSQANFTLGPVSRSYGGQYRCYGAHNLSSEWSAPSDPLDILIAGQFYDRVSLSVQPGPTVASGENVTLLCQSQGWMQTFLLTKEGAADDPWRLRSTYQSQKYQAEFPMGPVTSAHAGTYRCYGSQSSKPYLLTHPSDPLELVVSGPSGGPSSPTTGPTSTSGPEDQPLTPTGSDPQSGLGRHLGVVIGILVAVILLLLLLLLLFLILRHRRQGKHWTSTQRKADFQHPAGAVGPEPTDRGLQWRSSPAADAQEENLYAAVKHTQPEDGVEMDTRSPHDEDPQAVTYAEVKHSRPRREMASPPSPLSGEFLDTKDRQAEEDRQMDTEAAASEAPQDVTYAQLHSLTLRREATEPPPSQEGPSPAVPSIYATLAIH", "assay": "FACS, 293F-hLILRB1 cells"}, "human LILRB3 [7]": {"biological_target": "T2, human LILRB3", "assay": "FACS, 293F-hLILRB3 cells", "remark": "listed apart in the source"}}}
{"binder": "B1", "values": [{"measurement": "EC50", "setting": "human LILRB4 [1]", "value": 4.05, "unit": "nM"}, {"measurement": "Max MFI", "setting": "human LILRB4 [1]", "value": 53700, "unit": "MFI"}, {"measurement": "binding result", "setting": "human LILRB3 [2]", "value": "no binding (tested: up to 66.67 nM)"}, {"measurement": "ADCP (%) at 133.3 nM, macrophages and MV-4-11 cells", "setting": "human LILRB4 [3]", "value": 18, "unit": "%"}, {"measurement": "FcγR stimulation (TNF-α, pg/mL)", "setting": "human LILRB4 [4]", "value": 1310, "unit": "pg/mL"}, {"measurement": "Fold change (Compared to isotype)", "setting": "human LILRB4 [4]", "value": 41.4, "unit": "fold"}]}
{"binder": "B2", "values": [{"measurement": "EC50", "setting": "human LILRB4 [1]", "value": 2.91, "unit": "nM"}, {"measurement": "Max MFI", "setting": "human LILRB4 [1]", "value": 48000, "unit": "MFI"}, {"measurement": "ADCP (%) at 133.3 nM, macrophages and MV-4-11 cells", "setting": "human LILRB4 [3]", "value": 18.2, "unit": "%"}, {"measurement": "FcγR stimulation (TNF-α, pg/mL)", "setting": "human LILRB4 [4]", "value": 215, "unit": "pg/mL"}, {"measurement": "Fold change (Compared to isotype)", "setting": "human LILRB4 [4]", "value": 6.81, "unit": "fold"}, {"measurement": "EC50 (nM), ADCC on THP-1 cells", "setting": "human LILRB4 [5]", "value": 4.14, "unit": "nM"}, {"measurement": "Max cell cytotoxicity (%), ADCC on THP-1 cells", "setting": "human LILRB4 [5]", "value": 2.39, "unit": "%"}]}
{"binder": "B3", "values": [{"measurement": "MFI", "setting": "human LILRA2", "value": 20, "unit": "MFI"}, {"measurement": "MFI", "setting": "human LILRB2", "value": 30.4, "unit": "MFI"}, {"measurement": "MFI", "setting": "human LILRA3", "value": 20.2, "unit": "MFI"}, {"measurement": "MFI", "setting": "human LILRA4", "value": 21.2, "unit": "MFI"}, {"measurement": "MFI", "setting": "human LILRB4 [6]", "value": 727, "unit": "MFI"}, {"measurement": "MFI", "setting": "human LILRA5", "value": 172, "unit": "MFI"}, {"measurement": "MFI", "setting": "human LILRB5", "value": 17.9, "unit": "MFI"}, {"measurement": "MFI", "setting": "human LILRA1", "value": 22.2, "unit": "MFI"}, {"measurement": "MFI", "setting": "human LILRB1", "value": 22.6, "unit": "MFI"}]}
{"binder": "B4", "values": [{"measurement": "EC50", "setting": "human LILRB4 [1]", "value": 2.05, "unit": "nM"}, {"measurement": "Max MFI", "setting": "human LILRB4 [1]", "value": 48500, "unit": "MFI"}, {"measurement": "ADCP (%) at 133.3 nM, macrophages and MV-4-11 cells", "setting": "human LILRB4 [3]", "value": 4.59, "unit": "%"}, {"measurement": "FcγR stimulation (TNF-α, pg/mL)", "setting": "human LILRB4 [4]", "value": 391, "unit": "pg/mL"}, {"measurement": "Fold change (Compared to isotype)", "setting": "human LILRB4 [4]", "value": 12.4, "unit": "fold"}, {"measurement": "Max cell cytotoxicity (%), ADCC on THP-1 cells", "setting": "human LILRB4 [5]", "value": 7.1, "unit": "%"}]}
{"binder": "B5", "values": [{"measurement": "MFI", "setting": "human LILRA2", "value": 19.6, "unit": "MFI"}, {"measurement": "MFI", "setting": "human LILRB2", "value": 29.5, "unit": "MFI"}, {"measurement": "MFI", "setting": "human LILRA3", "value": 20, "unit": "MFI"}, {"measurement": "MFI", "setting": "human LILRA4", "value": 19.5, "unit": "MFI"}, {"measurement": "MFI", "setting": "human LILRB4 [6]", "value": 1060, "unit": "MFI"}, {"measurement": "MFI", "setting": "human LILRA5", "value": 24.5, "unit": "MFI"}, {"measurement": "MFI", "setting": "human LILRB5", "value": 16.8, "unit": "MFI"}, {"measurement": "MFI", "setting": "human LILRA1", "value": 22.2, "unit": "MFI"}, {"measurement": "MFI", "setting": "human LILRB1", "value": 19.4, "unit": "MFI"}]}
{"binder": "B6", "values": [{"measurement": "MFI", "setting": "human LILRA2", "value": 17.3, "unit": "MFI"}, {"measurement": "MFI", "setting": "human LILRB2", "value": 27.7, "unit": "MFI"}, {"measurement": "MFI", "setting": "human LILRA3", "value": 19.1, "unit": "MFI"}, {"measurement": "MFI", "setting": "human LILRB3 [7]", "value": 24.9, "unit": "MFI"}, {"measurement": "MFI", "setting": "human LILRA4", "value": 19.7, "unit": "MFI"}, {"measurement": "MFI", "setting": "human LILRB4 [6]", "value": 512, "unit": "MFI"}, {"measurement": "MFI", "setting": "human LILRB5", "value": 19.5, "unit": "MFI"}, {"measurement": "MFI", "setting": "human LILRA1", "value": 22.1, "unit": "MFI"}, {"measurement": "MFI", "setting": "human LILRB1", "value": 21.1, "unit": "MFI"}]}
